Numbering of substitutions follows the chain as printed.
Key:
Assay in all cases: cell-based or functional assay
WT human IL-18 [1] = molecular target: T1, WT human IL-18 (human, UniProt Q14116 37-193)
T1 sequence: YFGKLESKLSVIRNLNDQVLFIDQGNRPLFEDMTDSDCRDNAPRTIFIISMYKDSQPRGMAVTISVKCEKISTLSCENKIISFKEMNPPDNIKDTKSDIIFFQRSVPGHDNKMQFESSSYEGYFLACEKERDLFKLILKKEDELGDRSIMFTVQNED

IL-18 variant G3R, K53S = molecular target: T2, IL-18 variant G3R, K53S (human, UniProt Q14116 37-193)
T2 chain: T1 sequence with G3R, C38M, K53S, C68S, C76S, C127S

WT IL-18-MonoFc = WT IL-18-MonoFc (human)
IL-18 variant G3T, M60K = molecular target: T3, IL-18 variant G3T, M60K (human, UniProt Q14116 37-193)
T3 chain: T1 sequence with G3T, C38M, M60K, C68S, C76S, C127S

IL-18 variant G3V, M60K = molecular target: T4, IL-18 variant G3V, M60K (human, UniProt Q14116 37-193)
T4 chain: T1 sequence with G3V, C38M, M60K, C68S, C76S, C127S

[2] = molecular target: T5, IL-18 variant G3T, M60K, D157E (human, UniProt Q14116 37-192)
T5 chain: T1 sequence with G3T, C38M, M60K, C68S, C76S, C127S, D157E

WT human IL-18 [3] = molecular target: T1, WT human IL-18; remark: listed apart in the source
IL-18 variant G3E, K53S [4] = molecular target: T6, IL-18 variant G3E, K53S (human, UniProt Q14116 37-193)
T6 chain: T1 sequence with G3E, C38M, K53S, C68S, C76S, C127S

IL-18 variant G3T, K53S = molecular target: T7, IL-18 variant G3T, K53S (human, UniProt Q14116 37-193)
T7 chain: T1 sequence with G3T, C38M, K53S, C68S, C76S, C127S

[5] = molecular target: T8, IL-18 variant G3H, N91V, K53S (human, UniProt Q14116 37-193)
T8 chain: T1 sequence with G3H, C38M, K53S, C68S, C76S, N91V, C127S

WT human IL-18 [6] = molecular target: T1, WT human IL-18; remark: listed apart in the source
IL-18 variant G3E, K53S [7] = molecular target: T6, IL-18 variant G3E, K53S
[8] = molecular target: T8, IL-18 variant G3H, N91V, K53S

Sequence of WT IL-18-MonoFc (human) (chain, as listed by the source): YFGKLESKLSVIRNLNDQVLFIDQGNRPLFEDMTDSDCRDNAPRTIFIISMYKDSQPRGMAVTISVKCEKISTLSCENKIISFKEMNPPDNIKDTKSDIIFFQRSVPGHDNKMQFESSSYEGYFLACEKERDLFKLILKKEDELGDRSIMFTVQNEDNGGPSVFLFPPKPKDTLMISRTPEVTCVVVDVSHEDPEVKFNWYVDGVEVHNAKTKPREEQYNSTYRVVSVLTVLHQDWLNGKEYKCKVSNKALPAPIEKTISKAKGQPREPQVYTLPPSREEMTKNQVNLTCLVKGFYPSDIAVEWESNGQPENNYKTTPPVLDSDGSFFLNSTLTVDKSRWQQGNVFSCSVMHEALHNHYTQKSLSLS

B1: mouse IL-18BP (other, UniProt Q9Z0M9 29-193, looked up)
chain: TSAPQTTATVLTGSSKDPCSSWSPAVPTKQYPALDVIWPEKEVPLNGTLTLSCTACSRFPYFSILYWLGNGSFIEHLPGRLKEGHTSREHRNTSTWLHRALVLEELSPTLRSTNFSCLFVDPGQVAQYHIILAQLWDGLKTAPSPSQETLSSHSPVSRSAGPGVA
Q: B1 was tested. Which “IC50 (read off the curve); IFN gamma from human PBMCs, WT IL-18 at 200 pM, mouse IL-18BP titrated” value (WT human IL-18 [1]) did it give?
A: Its value is roughly 2000 pM.

Q: And the “IC50 (read off the curve); IFN gamma from human PBMCs, G3R/K53S at 200 pM, mouse IL-18BP titrated; partial inhibition” value (IL-18 variant G3R, K53S)?
A: The value was roughly 10000 pM.

B2: human IL-18 binding protein (IL-18BP) (other, UniProt O95998 31-194, looked up)
chain: TPVSQTTTAATASVRSTKDPCPSQPPVFPAAKQCPALEVTWPEVEVPLNGTLSLSCVACSRFPNFSILYWLGNGSFIEHLPGRLWEGSTSRERGSTGTQLCKALVLEQLTPALHSTNFSCVLVDPEQVVQRHVVLAQLWAGLRATLPPTQEALPSSHSSPQQQG
Q: Which “Potency - with IL-18BP (IC50), IFN gamma expression in PBMCs” value (“Potency - with IL-18BP (IC50)” for short) (WT IL-18-MonoFc) does the source give for B2 here?
A: The value was 0.096 nM.

Q: What about the “Potency - with IL-18BP (IC50)” value (IL-18 variant G3T, M60K) of the same binder?
A: The value was greater than 100 nM.

Q: And the “Potency - with IL-18BP (IC50)” value (IL-18 variant G3V, M60K)?
A: Its value is greater than 100 nM.

Q: And the “Potency - with IL-18BP (IC50)” value [2]?
A: The value was greater than 100 nM.

Q: And the “Potency - with IL-18BP (IC50)” value (WT human IL-18 [3])?
A: The value was 0.096 nM.

Q: And the “Potency - with IL-18BP (IC50)” value (IL-18 variant G3E, K53S [4])?
A: Its value is 0.925 nM.

Q: And the “Potency - with IL-18BP (IC50)” value (IL-18 variant G3T, K53S)?
A: The value was 15.3 nM.

Q: And the “Potency - with IL-18BP (IC50)” value [5]?
A: Its value is 24.3 nM.

Q: And the “IC50 (read off the curve); IFN gamma from human PBMCs, WT IL-18 at 200 pM, human IL-18BP titrated” value (WT human IL-18 [6])?
A: The value was roughly 100 pM.

Q: What about the “IC50 (read off the curve); IFN gamma from human PBMCs, G3E/K53S at 2000 pM, human IL-18BP titrated; partial inhibition” value (IL-18 variant G3E, K53S [7]) of the same binder?
A: The value was roughly 1000 pM.

Q: And the “IC50 (read off the curve); IFN gamma from human PBMCs, G3H/K53S/N91V at 1000 pM, human IL-18BP titrated; partial inhibition” value [8]?
A: The value was roughly 20000 pM.

Reference: patent publication US20240182536A1 (MURAL ONCOLOGY, published 2024)
